Reference: PMC10074443

Tests used:
C[C@@H](N)[C@H](N)C(=O)O = experiment: continuous MesG/hydroxylamine coupled adenylation assay; format: biochemical, Paraburkholderia acidicola; settings: co-substrate ATP; hydroxylamine as acceptor
N[C@H](CF)[C@H](N)C(=O)O = experiment: as above; format: biochemical, Paraburkholderia acidicola; settings: co-substrate ATP; hydroxylamine as acceptor

A3 (adenylation domain of SulM) (Paraburkholderia acidicola)
Km (C[C@@H](N)[C@H](N)C(=O)O): 1.08 mM
Km (N[C@H](CF)[C@H](N)C(=O)O): 20.7 mM
